Results: patent publication US20110150870A1

Columns and labels:
[1] = biological target: human NKG2D, cell surface (human) (UniProt P26718); assay: cell-based or functional assay
[2] = biological target: human Fc-NKG2D (human) (UniProt P26718); assay: SPR (BIAcore 2000), human Fc-NKG2D immobilized on chip; bivalent IgG
[3] = biological target: human Fc-NKG2D (human) (UniProt P26718); assay: SPR (BIAcore 2000), human Fc-NKG2D immobilized on chip; bivalent binding (virtual affinity, avidity)

Chain of human NKG2D, cell surface (human) (P26718 whole entry): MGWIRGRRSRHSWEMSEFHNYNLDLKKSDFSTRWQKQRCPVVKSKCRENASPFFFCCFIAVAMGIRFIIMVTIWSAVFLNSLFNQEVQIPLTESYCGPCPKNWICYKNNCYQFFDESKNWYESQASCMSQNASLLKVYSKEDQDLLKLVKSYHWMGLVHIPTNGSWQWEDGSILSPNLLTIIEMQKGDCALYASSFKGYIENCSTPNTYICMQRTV
Chain of human Fc-NKG2D (human) (P26718 78-216 limits assumed): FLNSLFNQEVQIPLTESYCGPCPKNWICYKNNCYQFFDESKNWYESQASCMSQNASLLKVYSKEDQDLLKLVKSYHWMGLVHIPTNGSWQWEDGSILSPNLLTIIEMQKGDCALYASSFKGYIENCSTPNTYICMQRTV

Substance: mouse anti-human NKG2D mAb 149810 (antibody)
- percentage of degranulated NK cells (CD56+ CD107a/CD107b+) among total NK cells (CD56+), immobilized antibody, Donor 1 [1]: 13.6%
- percentage of degranulated NK cells (CD56+ CD107a/CD107b+) among total NK cells (CD56+), immobilized antibody, Donor 2 [1]: 16.3%
- percentage of degranulated NK cells (CD56+ CD107a/CD107b+) among total NK cells (CD56+), immobilized antibody, Donor 3 [1]: 24.3%
- percentage of degranulated NK cells (CD56+ CD107a/CD107b+) among total NK cells (CD56+), immobilized antibody, Donor 4 [1]: 8.4%
- koff [2]: 5.1e-05 s⁻¹
- kon [2]: 140000 M⁻¹ s⁻¹
- Kd [3]: 360 pM
